{
  "source": "paper PMC10144703",
  "about": "“Molecular Mechanism of Sirtuin 1 Inhibition by Human Immunodeficiency Virus 1 Tat Protein” (Life, 2023)",
  "molecules": {"B1": {"name": "Tat-Cys^− residues 1–63: C-terminally shortened Tat-Cys^− construct, residues 1–63 (protein)", "chain": "MDPVDPNIEPWNHPGSQPKTASNRAHAKKSAYHSQVAFITKGLGISYGRKKRRQRRRPSQGGQ"}},
  "molecular_target": "T1, human full-length Sirt1 (fl-Sirt1) (Homo sapiens, UniProt Q96EB6)",
  "T1 construct": "human full-length Sirt1 (fl-Sirt1) in pET-15b; made in house; host or cells: E. coli CodonPlus(DE3)",
  "T1 sequence (Q96EB6 1-747)": "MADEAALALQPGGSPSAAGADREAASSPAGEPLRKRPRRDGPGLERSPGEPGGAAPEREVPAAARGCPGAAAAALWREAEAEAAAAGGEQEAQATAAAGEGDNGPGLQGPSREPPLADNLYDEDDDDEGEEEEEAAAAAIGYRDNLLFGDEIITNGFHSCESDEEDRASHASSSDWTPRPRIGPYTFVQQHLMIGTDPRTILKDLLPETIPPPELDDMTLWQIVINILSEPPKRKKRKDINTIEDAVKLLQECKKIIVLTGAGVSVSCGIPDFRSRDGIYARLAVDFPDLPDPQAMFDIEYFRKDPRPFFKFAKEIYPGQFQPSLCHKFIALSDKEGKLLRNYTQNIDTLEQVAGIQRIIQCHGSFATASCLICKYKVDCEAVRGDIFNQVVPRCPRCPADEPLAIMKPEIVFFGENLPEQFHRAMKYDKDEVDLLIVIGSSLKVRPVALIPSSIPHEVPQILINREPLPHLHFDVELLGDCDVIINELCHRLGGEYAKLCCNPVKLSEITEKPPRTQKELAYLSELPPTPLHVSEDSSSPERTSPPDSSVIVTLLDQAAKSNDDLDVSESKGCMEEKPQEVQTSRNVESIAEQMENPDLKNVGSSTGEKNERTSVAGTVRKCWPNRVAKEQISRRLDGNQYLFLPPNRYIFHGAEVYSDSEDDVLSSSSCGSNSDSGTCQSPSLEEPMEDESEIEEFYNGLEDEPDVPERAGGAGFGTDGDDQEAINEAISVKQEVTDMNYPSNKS",
  "test": "FdL deacetylation assay, fl-Sirt1",
  "type": "biochemical",
  "settings": "FdL assay, 100 µM FdL-1, 500 µM NAD^+, pH 7.8, 37 °C; n = 2; read-out: IC50, fl-Sirt1, truncated Tat-Cys^− constructs",
  "source_text": "A human mini-Sirt1 construct (aa 183-505-(GGGS)2-641-665), as described in [27], was generated in a modified pET-19b with a TEV cleavage site. This construct and human full-length Sirt1 (fl-Sirt1) in pET-15b, Sirt1-(183-664) and Sirt1-(214-664) in pET-15b, mini-Sirt1-∆SBD (aa 214-505-(GGGS)2-641-665) and mini-Sirt1-∆ESA (aa 183–505) in a modified pET-19b with TEV cleavage site, Sirt2-(43-356) in a modified pET-19b with a His6-Sumo tag, Sirt3-(93-399) in a modified pET-32a with Trx-His6 tag and TEV cleavage site, hSirt3-(118-399) in pVFT3S (Sungkyunkwan University, Seoul, Republic of Korea) with His6-Trx tag and TEV cleavage site, Sirt5-(34-302) in pET-151/D-TOPO, and Sirt6-(1-355) in pQE80L.1 were purified as described. Shortly, proteins were expressed at 20 °C (mini-Sirt1 constructs at 16 °C) in E. coli CodonPlus(DE3), cell lysates were cleared by centrifugation, and proteins were purified via affinity chromatography using a nickel NTA column. After digestion with thrombin or TEV protease, proteins were re-run over the nickel NTA column, pooled, and concentrated. The samples were, then, subjected either directly to size exclusion chromatography in 50 mM Tris/HCl, pH 8.0, 150 mM NaCl, 1 mM TCEP, or to an ion exchange chromatography followed by size exclusion chromatography. […]",
  "data": [
    {"molecule": "B1", "values": [
      {"measurement": "IC50", "value": "~10", "unit": "µM"}
    ]}
  ]
}
